Test results as given in patent US20140335573A1.

Target: native C. thermocellum cellulosome (purified from culture media of C. thermocellum ATCC 27405) (Clostridium thermocellum) (UniProt Q06851)
Test: cell-based or functional assay

Chain of UniProt Q06851 (Q06851 whole entry): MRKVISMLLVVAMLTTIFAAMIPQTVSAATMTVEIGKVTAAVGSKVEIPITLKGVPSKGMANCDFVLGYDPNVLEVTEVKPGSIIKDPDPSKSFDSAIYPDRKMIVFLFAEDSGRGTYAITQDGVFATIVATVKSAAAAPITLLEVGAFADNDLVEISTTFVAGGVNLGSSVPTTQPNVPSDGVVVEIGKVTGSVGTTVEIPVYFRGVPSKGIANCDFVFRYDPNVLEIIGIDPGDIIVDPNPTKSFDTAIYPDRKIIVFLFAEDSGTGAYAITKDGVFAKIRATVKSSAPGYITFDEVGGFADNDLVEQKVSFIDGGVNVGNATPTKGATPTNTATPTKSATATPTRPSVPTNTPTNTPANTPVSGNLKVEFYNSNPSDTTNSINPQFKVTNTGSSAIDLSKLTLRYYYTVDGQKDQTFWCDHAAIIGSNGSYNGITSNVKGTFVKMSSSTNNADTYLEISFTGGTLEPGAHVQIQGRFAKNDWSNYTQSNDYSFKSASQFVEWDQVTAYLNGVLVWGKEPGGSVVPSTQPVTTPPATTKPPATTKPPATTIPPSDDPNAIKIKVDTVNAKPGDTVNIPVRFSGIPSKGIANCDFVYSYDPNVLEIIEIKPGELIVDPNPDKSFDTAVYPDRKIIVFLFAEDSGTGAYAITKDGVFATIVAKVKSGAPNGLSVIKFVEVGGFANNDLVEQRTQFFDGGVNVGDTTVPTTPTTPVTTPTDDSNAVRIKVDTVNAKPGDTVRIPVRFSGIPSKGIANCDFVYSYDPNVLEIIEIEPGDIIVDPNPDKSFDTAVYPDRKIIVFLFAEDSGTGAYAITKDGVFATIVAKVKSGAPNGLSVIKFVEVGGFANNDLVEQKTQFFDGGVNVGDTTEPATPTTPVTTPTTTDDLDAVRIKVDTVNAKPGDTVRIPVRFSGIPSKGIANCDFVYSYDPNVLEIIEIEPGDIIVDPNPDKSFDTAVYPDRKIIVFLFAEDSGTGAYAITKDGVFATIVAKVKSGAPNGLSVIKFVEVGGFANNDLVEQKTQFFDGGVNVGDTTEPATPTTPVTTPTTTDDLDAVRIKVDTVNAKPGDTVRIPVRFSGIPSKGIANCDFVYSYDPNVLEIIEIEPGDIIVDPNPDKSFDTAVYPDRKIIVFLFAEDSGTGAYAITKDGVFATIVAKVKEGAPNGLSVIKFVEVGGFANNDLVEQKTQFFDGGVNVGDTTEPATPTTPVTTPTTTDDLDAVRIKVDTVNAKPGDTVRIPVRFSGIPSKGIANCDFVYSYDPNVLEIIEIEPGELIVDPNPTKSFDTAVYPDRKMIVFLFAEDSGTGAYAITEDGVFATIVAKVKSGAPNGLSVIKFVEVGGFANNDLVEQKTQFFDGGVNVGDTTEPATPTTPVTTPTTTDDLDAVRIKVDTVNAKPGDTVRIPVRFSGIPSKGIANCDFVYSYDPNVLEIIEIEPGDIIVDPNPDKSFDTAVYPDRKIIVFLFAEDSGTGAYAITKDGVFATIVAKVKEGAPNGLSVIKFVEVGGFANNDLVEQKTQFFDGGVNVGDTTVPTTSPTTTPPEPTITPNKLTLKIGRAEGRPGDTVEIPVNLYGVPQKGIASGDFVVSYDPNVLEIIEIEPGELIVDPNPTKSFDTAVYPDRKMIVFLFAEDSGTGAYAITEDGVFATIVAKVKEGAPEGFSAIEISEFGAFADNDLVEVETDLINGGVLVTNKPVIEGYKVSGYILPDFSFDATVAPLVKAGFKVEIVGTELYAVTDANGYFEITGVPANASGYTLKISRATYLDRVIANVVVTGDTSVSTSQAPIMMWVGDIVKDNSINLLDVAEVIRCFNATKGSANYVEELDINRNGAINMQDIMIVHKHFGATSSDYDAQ

BglA-CohII (C. thermocellum beta-glucosidase A fused to the type-II cohesin module of Orf2p) (enzyme)
hydrolysis of microcrystalline cellulose (soluble reducing sugars), fold over native cellulosome: 2.68 fold
hydrolysis of pre-treated switchgrass (soluble reducing sugars), fold over native cellulosome: 1.86 fold
